Assays:
HIF-1α PAS-B domain [1] = target: HIF-1α PAS-B domain (UniProt Q16665); assay: MST (microscale thermophoresis), labelled HIF-1α PAS-B [part 4 of 4]
HIF-1α PAS-B domain [2] = target: HIF-1α PAS-B domain (UniProt Q16665); assay: MST (microscale thermophoresis), labelled HIF-1α PAS-B [part 2 of 4]
HIF-1α PAS-B domain [3] = target: HIF-1α PAS-B domain (UniProt Q16665); assay: MST (microscale thermophoresis), labelled HIF-1α PAS-B [part 3 of 4]
HIF-1α PAS-B domain [4] = target: HIF-1α PAS-B domain (UniProt Q16665); assay: MST
His-HIF-1α PAS-B domain = His-HIF-1α PAS-B domain (UniProt Q16665); assay: competition ELISA: inhibition of FLAG-HIF-1β PAS-B binding to plate-bound His-HIF-1α PAS-B
HIF-1α PAS-B domain [5] = target: HIF-1α PAS-B domain (UniProt Q16665); assay: MST (microscale thermophoresis), labelled HIF-1α PAS-B [part 3 of 14) B]
HIF-1α PAS-B domain [6] = target: HIF-1α PAS-B domain (UniProt Q16665); assay: MST (microscale thermophoresis), labelled HIF-1α PAS-B [part 1 of 4) B]

Chain of HIF-1α PAS-B domain (Q16665 238-349 limits assumed): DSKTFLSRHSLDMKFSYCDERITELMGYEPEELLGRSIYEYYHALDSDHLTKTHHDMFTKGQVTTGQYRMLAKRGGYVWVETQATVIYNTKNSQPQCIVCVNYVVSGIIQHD
Chain of His-HIF-1α PAS-B domain (Q16665 238-349 limits assumed): as above

Cyclo-CL-NL-F(CF3)IF(Br) (Cys leu n-leu phe(CF3) ile phe(4-Br)) (peptide)
EC50 (read off the curve) (HIF-1α PAS-B domain [1]): 500 nM

Cyclo-CLLF(CF3)-hL-F(Br) (Cys leu leu phe(CF3) h-leu phe(4-Br)) (peptide)
Kd (HIF-1α PAS-B domain [1]): 735 nM

Cyclo-CL-NV-F(CF3)IF(Br) (peptide)
EC50 (read off the curve) (HIF-1α PAS-B domain [2]): 600 nM

Cyclo-CL-hL-F(CF3)IF(Br) (peptide)
EC50 (read off the curve) (HIF-1α PAS-B domain [3]): 700 nM

Cyclo-CLLF(CF3)-NL-F(Br) (peptide)
Kd (HIF-1α PAS-B domain [1]): 1030 nM

Cyclo-CLLF(CF3)-Prop-F(Br) (peptide)
Kd (HIF-1α PAS-B domain [2]): 1160 nM

Cyclo-CLLF(CF3)-NV-F(Br) (peptide)
Kd (HIF-1α PAS-B domain [2]): 22400 nM

Cyclo-CL-Prop-F(CF3)IF(Br) (peptide)
EC50 (read off the curve) (HIF-1α PAS-B domain [3]): 1000 nM

cyclo-CK-NL-F(CF3)IF(Br) (Cys lys n-leu phe(CF3) ile phe(4-Br)) (peptide)
Kd (HIF-1α PAS-B domain [4]): 1660 nM
IC50 (His-HIF-1α PAS-B domain): 27700 nM

Cyclo-CLLF(CF3)-Aib-F(Br) (peptide)
Kd (HIF-1α PAS-B domain [3]): 1920 nM

Cyclo-CLLY(Me)VY (peptide)
Kd (HIF-1α PAS-B domain [5]): > 200000 nM

Cyclo-CL-Aib-F(CF3)IF(Br) (peptide)
EC50 (read off the curve) (HIF-1α PAS-B domain [6]): 2000 nM
